Experimental findings from publication doi:10.1101/2022.01.16.476467 are described below.

The target of the experiment is CASK_CAMK domain (residues 1-345) (Mus musculus) (UniProt O70589). The experiment can be described thus: ITC. (In general: ITC needs no label: the signal is the heat of the interaction.)

In turn, Caskin1 CID L378T (domain or fragment) came in with a fold decrease of the interaction against wild-type Caskin1 of 9 fold.

In turn, “Caskin1 CID L378T/R379H (domain or fragment)” gave a fold decrease of the binding against wild-type Caskin1 of 40 fold.

As to “LiprinA2 CID G977E and H983R (domain or fragment)”, the fold increase in the binding affinity against wild-type LiprinA2 came to 9 fold.

Turning to reported Caskin1 peptide, the Kd (in general, the equilibrium constant for the complex coming apart) was found to be 6.94 µM and the stoichiometry N (in general, the number of molecules, sites or subunits per partner or assembly) was determined as 1.
